Biological target: recombinant GPIb
Assay: GPIb binding activity test of the purified product (format not described; FIG. 9)

B1: recombinant Agkisacutacin (heterodimer snake venom protein, A chain and B chain, expressed in Pichia pastoris GS115) (protein)
chain 1: DVDCLPGWSAYDQSCYRVFKLLKTWDDAEKFCTERPKGGHLVSIESAGERDFVAQLVSENKQTDNVWLGLKIQSKGQQCSTEWTDGSSVSYENFSEYQSKKCFVEKNTGFRTWLNLNCGSEYAFVCKSPP
chain 2: GFCCPLRWSSYEGHCYLVVKEKKTWDDAEKFCTEQRKGGHLVSVHSREEADFLVHLAYPILDLSLIWMGLSNMWNDCKREWSDGTKLDFKAWAKTSDCLIGKTDDNQWLNMDCSKKHYFVCKFKL
Kd: 100 nM

Source: patent publication US20200048644A1
